According to patent US20150258192A1, “COMPOSITIONS AND METHODS FOR PREVENTING OR TREATING CHRONIC LUNG ALLOGRAFT DYSFUNCTION (CLAD) AND IDIOPATHIC PULMONARY FIBROSIS (IPF)” (priority 2014, published 2015):
No end group written: not given here.

Experiments:
Experiment in all cases: Kinase Profiling Assay
Format in all cases: biochemical
Settings in all cases: peptide 100 μM
Lyn(h) = target: T1, Lyn(h) (Homo sapiens, UniProt P07948)
T1 construct: purchased Millipore
Method in brief: (§1)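 Scintillation counting quantifies radiolabeled, positively charged substrate retained on a negatively charged filter after kinase reaction with labeled ATP; inhibitor peptide present.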

PKCμ(h) = target: T2, PKCμ(h) (Homo sapiens, UniProt Q15139)
T2 sequence (Q15139 1-912): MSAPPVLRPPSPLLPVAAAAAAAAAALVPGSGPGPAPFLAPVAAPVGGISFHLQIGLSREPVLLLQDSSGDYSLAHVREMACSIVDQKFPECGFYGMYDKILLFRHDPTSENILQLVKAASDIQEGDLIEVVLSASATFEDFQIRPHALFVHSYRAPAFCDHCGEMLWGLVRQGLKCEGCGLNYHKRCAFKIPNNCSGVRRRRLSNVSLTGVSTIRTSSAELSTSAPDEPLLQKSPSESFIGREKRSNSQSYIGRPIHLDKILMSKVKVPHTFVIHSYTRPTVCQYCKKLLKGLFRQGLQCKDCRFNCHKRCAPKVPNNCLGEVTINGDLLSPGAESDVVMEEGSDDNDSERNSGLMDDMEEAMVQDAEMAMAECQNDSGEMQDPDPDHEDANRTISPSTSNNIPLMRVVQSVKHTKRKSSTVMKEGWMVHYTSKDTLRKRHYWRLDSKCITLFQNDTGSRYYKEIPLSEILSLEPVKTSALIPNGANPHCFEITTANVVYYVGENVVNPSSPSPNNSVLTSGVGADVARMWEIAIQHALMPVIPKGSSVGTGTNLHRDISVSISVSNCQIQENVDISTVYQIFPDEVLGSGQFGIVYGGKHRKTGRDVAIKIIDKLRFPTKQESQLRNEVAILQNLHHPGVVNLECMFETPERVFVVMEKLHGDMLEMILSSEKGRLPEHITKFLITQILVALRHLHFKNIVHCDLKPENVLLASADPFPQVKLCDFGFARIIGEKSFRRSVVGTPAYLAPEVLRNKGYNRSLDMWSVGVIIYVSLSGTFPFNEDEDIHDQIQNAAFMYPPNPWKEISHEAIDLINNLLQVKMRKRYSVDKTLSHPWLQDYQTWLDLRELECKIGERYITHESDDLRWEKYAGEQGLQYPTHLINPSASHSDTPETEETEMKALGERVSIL
Method in brief: as §1

PAK5(h) = PAK5(h) (Homo sapiens, UniProt Q9P286)
PAK5(h), sequence (Q9P286 whole entry): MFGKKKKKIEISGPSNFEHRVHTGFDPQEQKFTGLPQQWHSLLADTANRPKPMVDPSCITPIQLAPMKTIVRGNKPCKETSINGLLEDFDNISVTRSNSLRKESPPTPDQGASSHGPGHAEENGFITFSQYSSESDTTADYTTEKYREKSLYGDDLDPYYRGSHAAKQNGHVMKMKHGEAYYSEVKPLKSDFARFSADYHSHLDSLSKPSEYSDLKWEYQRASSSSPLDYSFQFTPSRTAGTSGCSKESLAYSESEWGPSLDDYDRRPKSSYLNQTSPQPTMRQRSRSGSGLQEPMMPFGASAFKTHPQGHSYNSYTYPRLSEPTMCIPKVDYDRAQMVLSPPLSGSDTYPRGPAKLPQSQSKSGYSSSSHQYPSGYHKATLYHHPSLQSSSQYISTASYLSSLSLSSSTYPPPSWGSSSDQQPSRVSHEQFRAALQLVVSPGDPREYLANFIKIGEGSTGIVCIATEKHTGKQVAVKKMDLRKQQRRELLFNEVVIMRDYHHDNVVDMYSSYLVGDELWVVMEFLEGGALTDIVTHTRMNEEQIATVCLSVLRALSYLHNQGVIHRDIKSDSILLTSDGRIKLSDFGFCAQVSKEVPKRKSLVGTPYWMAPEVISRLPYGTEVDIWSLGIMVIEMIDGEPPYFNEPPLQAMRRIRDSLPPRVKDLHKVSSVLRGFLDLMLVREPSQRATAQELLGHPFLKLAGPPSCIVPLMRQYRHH
Method in brief: as §1

ARK5(h) = target: T3, ARK5(h) (Homo sapiens, UniProt O60285)
T3 sequence (O60285 1-661): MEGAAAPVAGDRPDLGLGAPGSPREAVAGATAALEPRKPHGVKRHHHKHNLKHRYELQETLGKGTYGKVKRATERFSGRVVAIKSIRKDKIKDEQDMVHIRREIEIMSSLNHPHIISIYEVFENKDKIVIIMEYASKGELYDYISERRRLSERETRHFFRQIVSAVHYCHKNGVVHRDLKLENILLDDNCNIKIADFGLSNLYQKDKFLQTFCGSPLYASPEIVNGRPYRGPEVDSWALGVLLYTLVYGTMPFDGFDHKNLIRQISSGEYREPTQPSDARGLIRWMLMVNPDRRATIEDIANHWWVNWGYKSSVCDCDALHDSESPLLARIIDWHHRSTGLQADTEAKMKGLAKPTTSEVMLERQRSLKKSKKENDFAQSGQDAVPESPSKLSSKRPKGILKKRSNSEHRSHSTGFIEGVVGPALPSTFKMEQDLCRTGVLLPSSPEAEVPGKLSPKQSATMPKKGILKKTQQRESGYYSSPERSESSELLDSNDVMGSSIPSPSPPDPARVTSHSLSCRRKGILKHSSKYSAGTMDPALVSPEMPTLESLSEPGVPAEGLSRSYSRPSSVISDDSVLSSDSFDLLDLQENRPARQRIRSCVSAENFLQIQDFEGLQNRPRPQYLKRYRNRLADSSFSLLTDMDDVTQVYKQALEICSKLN
Method in brief: as §1

FGFR2(h) = FGFR2(h) (Homo sapiens, UniProt P21802)
Method in brief: as §1

JNK2α2(h) = target: T4, JNK2α2(h) (Homo sapiens, UniProt P45984)
T4 construct: purchased Millipore
Method in brief: as §1

MRCKβ(h) = target: T5, MRCKβ(h) (Homo sapiens, UniProt Q9Y5S2)
T5 construct: purchased Millipore
T5 sequence (Q9Y5S2 whole entry): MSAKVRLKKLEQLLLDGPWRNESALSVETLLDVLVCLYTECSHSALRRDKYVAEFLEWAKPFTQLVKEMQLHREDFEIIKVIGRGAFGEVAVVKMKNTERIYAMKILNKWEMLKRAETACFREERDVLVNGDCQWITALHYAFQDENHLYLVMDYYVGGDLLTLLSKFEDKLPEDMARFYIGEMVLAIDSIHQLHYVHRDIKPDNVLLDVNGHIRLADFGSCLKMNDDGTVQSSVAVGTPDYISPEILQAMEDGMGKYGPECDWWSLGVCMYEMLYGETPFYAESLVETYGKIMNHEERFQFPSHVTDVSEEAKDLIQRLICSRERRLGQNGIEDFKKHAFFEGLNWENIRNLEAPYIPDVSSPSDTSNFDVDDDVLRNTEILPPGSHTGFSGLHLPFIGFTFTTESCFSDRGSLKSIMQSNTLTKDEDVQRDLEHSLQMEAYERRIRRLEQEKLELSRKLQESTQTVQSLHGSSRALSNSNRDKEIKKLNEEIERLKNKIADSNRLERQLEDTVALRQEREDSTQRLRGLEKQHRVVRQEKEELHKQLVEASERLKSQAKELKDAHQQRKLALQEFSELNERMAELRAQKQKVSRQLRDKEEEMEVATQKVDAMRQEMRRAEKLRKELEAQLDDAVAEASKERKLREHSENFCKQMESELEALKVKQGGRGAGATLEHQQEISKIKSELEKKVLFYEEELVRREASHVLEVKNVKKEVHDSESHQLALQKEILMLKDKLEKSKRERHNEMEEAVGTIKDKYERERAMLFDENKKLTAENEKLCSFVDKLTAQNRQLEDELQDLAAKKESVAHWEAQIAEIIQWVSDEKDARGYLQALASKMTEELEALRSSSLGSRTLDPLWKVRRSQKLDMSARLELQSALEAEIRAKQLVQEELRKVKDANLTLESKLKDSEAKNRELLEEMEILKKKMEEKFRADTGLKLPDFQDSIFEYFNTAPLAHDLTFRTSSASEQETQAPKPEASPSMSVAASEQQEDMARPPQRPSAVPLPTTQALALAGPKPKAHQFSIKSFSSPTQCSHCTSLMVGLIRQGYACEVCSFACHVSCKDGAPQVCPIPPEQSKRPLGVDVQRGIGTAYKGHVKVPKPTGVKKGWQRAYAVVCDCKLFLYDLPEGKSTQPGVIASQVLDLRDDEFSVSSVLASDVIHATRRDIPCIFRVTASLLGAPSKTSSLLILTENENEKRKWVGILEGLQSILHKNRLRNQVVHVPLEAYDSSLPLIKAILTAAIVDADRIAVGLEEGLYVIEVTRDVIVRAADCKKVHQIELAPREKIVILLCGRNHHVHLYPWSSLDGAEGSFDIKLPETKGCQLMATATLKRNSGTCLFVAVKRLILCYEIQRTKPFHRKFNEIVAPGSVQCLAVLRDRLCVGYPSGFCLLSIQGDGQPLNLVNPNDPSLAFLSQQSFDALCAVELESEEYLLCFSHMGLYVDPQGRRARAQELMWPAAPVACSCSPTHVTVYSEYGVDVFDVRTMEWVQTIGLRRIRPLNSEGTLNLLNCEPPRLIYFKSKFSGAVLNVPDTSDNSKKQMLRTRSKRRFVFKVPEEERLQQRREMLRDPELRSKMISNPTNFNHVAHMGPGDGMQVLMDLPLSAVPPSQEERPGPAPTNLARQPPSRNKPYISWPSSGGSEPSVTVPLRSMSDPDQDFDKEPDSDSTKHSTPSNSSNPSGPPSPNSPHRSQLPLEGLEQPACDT
Method in brief: as §1

DDR2(h) = target: T6, DDR2(h) (Homo sapiens, UniProt Q16832)
T6 sequence (Q16832 22-855): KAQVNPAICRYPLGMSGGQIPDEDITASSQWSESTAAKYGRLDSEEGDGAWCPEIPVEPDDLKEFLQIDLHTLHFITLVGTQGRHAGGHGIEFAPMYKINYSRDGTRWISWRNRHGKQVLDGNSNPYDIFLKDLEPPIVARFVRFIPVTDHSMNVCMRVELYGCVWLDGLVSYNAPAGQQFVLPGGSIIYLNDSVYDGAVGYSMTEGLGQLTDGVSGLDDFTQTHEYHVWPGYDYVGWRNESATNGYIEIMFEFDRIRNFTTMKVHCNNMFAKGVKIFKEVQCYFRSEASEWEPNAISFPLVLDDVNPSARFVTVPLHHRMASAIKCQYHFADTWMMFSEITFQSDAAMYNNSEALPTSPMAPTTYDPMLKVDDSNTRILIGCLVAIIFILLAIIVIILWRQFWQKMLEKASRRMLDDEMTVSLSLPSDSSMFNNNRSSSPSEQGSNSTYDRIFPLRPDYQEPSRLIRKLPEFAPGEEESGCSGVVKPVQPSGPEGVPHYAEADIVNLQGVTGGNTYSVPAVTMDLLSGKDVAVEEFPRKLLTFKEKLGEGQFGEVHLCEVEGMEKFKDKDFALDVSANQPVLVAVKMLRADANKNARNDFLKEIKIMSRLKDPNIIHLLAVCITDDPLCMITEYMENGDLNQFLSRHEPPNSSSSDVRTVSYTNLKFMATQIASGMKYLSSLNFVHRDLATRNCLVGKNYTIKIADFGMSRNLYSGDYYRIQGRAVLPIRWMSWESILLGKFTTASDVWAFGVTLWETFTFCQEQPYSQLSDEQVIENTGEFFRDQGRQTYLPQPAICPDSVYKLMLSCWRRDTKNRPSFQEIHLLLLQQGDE
Method in brief: as §1

T1 sequence (P07948 whole entry): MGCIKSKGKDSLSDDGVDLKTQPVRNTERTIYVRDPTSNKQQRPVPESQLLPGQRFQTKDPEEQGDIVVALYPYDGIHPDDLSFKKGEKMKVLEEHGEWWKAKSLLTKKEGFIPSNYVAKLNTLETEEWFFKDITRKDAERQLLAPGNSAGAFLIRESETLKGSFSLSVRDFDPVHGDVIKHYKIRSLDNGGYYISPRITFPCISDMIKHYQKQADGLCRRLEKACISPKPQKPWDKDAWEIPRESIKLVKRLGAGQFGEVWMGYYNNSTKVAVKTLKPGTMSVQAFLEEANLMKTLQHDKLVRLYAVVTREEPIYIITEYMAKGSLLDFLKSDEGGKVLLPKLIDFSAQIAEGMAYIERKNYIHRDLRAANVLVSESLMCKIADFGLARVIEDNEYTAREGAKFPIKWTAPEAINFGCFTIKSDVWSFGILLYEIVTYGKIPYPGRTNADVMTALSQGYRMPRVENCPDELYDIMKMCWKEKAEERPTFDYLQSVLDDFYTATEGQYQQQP

YARAAARQARAKALNRQLGVA (Mammal) [MMI-0200]
% activity (Lyn(h)): 98% | % activity (PKCμ(h)): 73% | % activity (PAK5(h)): 100% | % activity (ARK5(h)): 93% | % activity (FGFR2(h)): 73%

YARAAARQARAKALARQLGVAA [MMI-0100]
% activity (PKCμ(h)): 79% | % activity (ARK5(h)): 108%

HRRIKAWLKKIKALARQLGVAA (Mammal) [MMI-0500]
% activity (Lyn(h)): 31% | % activity (JNK2α2(h)): 81% | % activity (PKCμ(h)): 10% | % activity (MRCKβ(h)): -10% | % activity (DDR2(h)): 79% | % activity (PAK5(h)): 125% | % activity (ARK5(h)): 20% | % activity (FGFR2(h)): 12%

KAFAKLAARLYRKALARQLGVAA [MMI-0400]
% activity (Lyn(h)): 3% | % activity (JNK2α2(h)): 96% | % activity (PKCμ(h)): 14% | % activity (MRCKβ(h)): 71% | % activity (DDR2(h)): 95% | % activity (ARK5(h)): 69% | % activity (FGFR2(h)): 18%

FAKLAARLYRKALARQLGVAA [MMI-0300]
% activity (Lyn(h)): 69% | % activity (JNK2α2(h)): 98% | % activity (PKCμ(h)): 22% | % activity (MRCKβ(h)): 83% | % activity (DDR2(h)): 94% | % activity (PAK5(h)): 110% | % activity (ARK5(h)): 78% | % activity (FGFR2(h)): 14%
